The values that follow come from paper PMC11588662.

Assay [1] deals with CD33 on human AML cells (Kasumi-1, HL-60, MOLM14) (human (endogenous in Kasumi-1, HL-60, MOLM14)) (UniProt P20138). Put plainly: flow cytometry on cells; MOLM14 GFP^-CD117^midCD33^+ cells stained with 10 nM of either Db-FM or both (10 nM each); fluorescence (MFI).
Assay [2] shares this target. The experiment in a line: flow cytometry on cells; 50 ug CD117 or CD33 Db-FM injected i.v. into NSG mice engrafted with MOLM14-CD117^highGFP^+Luc^+ cells; femora collected after 1 and 6 h; MFI (APC anti-FITC) interpolated on an ex vivo titration of Db-FM on cells of a control mouse. Background: Flow cytometry measures light scatter and fluorescence of single cells or particles in a stream.

Chain of CD33 on human AML cells (Kasumi-1, HL-60, MOLM14) (human (endogenous in Kasumi-1, HL-60, MOLM14)) (P20138 18-364): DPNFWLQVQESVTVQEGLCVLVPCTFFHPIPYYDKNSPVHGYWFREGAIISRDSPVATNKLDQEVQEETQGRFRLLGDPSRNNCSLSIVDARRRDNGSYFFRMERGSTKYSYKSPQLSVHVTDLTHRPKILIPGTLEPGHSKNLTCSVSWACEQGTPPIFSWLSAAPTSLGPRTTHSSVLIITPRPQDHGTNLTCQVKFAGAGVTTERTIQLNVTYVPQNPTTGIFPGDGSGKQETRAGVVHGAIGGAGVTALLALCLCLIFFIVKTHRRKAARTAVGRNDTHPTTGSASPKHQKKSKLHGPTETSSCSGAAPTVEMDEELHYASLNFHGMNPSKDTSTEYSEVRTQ

For “CD33 Db-FM (fluorescein-maleimide-labelled anti-CD33 diabody, clone SGN-33)”, in assay [1], the MFI came to 942. For the same substance, in assay [2], the interpolated on-tumor Db-FM concentration 1 h after injection stood at 0.99 nM and the interpolated on-tumor Db-FM concentration 6 h after injection came out at 0.22 nM.
